Experimental data as given in article PMC9808001.

Key:
Test in all cases: BLI; 25 nM WDR44 (334–389) wild type or mutant immobilised on anti-penta-His tips, […] nM Rab11; responses normalised to the mean wildtype response; 30 °C; 20 mM Hepes pH 7.5, 150 mM NaCl, 1 mM MgCl2, bovine serum albumin, 0.002% Tween-20
[1] = molecular target: Strep-His WDR44 (334–389) I359A (human) (UniProt Q5JSH3)
[2] = molecular target: Strep-His WDR44 (334–389) K360E (human) (UniProt Q5JSH3)
[3] = molecular target: Strep-His WDR44 (334–389) L354A (human) (UniProt Q5JSH3)
[4] = molecular target: Strep-His WDR44 (334–389) L370A (human) (UniProt Q5JSH3)

Measured: percent decrease in complex formation against wild type

Chain of Strep-His WDR44 (334–389) L370A (human) (Q5JSH3 334-389 L370A): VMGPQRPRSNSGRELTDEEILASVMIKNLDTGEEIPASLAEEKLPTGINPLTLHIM
Chain of Strep-His WDR44 (334–389) K360E (human) (Q5JSH3 334-389 K360E): as the sequence (Q5JSH3 334-389 L370A) above, with K27E, A37L counted along it
Chain of Strep-His WDR44 (334–389) I359A (human) (Q5JSH3 334-389 I359A): as the sequence (Q5JSH3 334-389 L370A) above, with I26A, A37L counted along it
Chain of Strep-His WDR44 (334–389) L354A (human) (Q5JSH3 334-389 L354A): as the sequence (Q5JSH3 334-389 L370A) above, with L21A, A37L counted along it

Rab11a (GTPγS-loaded) (from UniProt P62491 1-216) (natural protein)
> 95%: all assays above
